Assay results from publication PMC11650997 (Journal of Virology, 2024).

B1: pT1616 (human monoclonal antibody, IgG1) (antibody, V domains shown)
VH: QVQLVQSGAEVKKPGSSVKVSCKASGGTFSSYTISWVRQAPGQGLECMGRIIPILGIANYAQKFQGRVTITADKSTSIAYMEVSSLRSEDTAVYYCATEVGYSGYGSAEYFNHWGQGTPVTVSS
VL: QSVLTQPPSVSGAPGQRVTISCTGSNSNIGAGYDVHWYQQLPGTAPKLLIYANNNRPSGVPDRFSGSRSGTSASLVITGLQADDEADYYCQSYDSSLTGSLFGGGTKLTVL
notes: also called bnAb pT1616; nAb pT1616; source: HEK293ExPi, transfected, purified from the supernatant (Protein G, SEC)
B2: pT1616 IgG1 (antibody, V domains shown)
VH: B1 VH
VL: B1 VL
notes: also called bnAb pT1616; nAb pT1616; source: HEK293ExPi, transfected, purified from supernatant (Protein G, SEC)

Legend:
[1] = target: T1, SARS-CoV-2 S protein ectodomain trimer, prefusion conformation, insect cell-expressed (SARS-CoV-2 Wuhan-Hu-1 (MN908947), UniProt P0DTC2, stabilised); assay: SPR; […] (100 nM, 30 s) […]; 1:1 Langmuir fit; conditions: both partners purified
T1 construct: also called S trimer; trimeric S protein

[2] = target: T2, SARS-CoV-2 S protein ectodomain trimer in prefusion conformation (insect cell-expressed) (SARS-CoV-2 Wuhan-Hu-1 (MN908947), UniProt P0DTC2, stabilised); assay: SPR; […] (100 nM) […]; 1:1 Langmuir fit; conditions: both partners purified
T2 construct: also called trimeric SARS-CoV-2 S protein; S trimer

Row | Binder | Kd [1] [nM] | koff [1] [s⁻¹] | kon [1] [M⁻¹ s⁻¹] | fold lower KD for the S trimer than for the monomeric RBD [2] [fold]
1 | B1 | 0.083 | 6.9e-05 | 840000 | –
2 | B2 | – | – | – | > 3
